The values that follow come from patent US6998239.

The test addresses T1, human CCX CKR with N-terminal Flag epitope, stably expressed on HEK293 cells, Q9NPB9.
T1 chain: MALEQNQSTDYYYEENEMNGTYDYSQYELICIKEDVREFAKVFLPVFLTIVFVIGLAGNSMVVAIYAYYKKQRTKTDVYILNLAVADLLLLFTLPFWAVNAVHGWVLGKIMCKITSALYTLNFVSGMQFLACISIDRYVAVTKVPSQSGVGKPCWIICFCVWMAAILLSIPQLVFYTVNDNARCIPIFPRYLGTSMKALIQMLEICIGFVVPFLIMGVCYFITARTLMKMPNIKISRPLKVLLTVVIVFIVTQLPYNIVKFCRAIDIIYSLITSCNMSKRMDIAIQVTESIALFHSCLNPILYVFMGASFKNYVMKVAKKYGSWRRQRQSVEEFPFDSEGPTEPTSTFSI
Nature of the test: 125I-ELC competition binding. As to conditions: ligand; chains chain; remark: other sources report otherwise.

B1: BLC (B-lymphocyte chemoattractant), O43927 23-109 (protein)
chain: VLEVYYTSLRCRCVQESSVFIPRRFIDRIQILPRGNGCPRKEIIVWKKNKSIVCVDPQAEWIQRMMEVLRKRSSSTLPVPVFKRKIP
B1 displayed an IC50 of 140 nM.

As a reminder, the IC50 is the concentration that inhibits the measured activity by half. Read a high IC50 as weaker potency in that assay.
